T1: human progastrin (full length) (human)
T1 construct: also called hPG; PG
T1 chain: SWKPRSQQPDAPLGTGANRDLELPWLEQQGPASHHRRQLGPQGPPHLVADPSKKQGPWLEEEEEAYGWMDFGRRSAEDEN

B1: mAb3 (hybridoma 6B5B11C10) (antibody, V domains shown)
VH: EVQLQQSGTVLARPGASVKMSCKASGYIFTSYWVHWVKQRPGQGLEWIGGFYPGNSDSRYNQKFKGKATLTAVTSASTAYMDLSSLTNEDSAVYFCTRRDSPQYWGQGTTLTVSS
VL: DVLMTQTPLSLPVSLGDQASISCRSSQSIVHSNGNTYLEWYLQKPGQSPKLLIYKVSNRFSGVPDRFSGSGSGTDFTLKISRLEAEDLGVYYCFQGSHVPFTFGGGTKLEIK
notes: Murine monoclonal antibody
B2: mAb4 (hybridoma 20D2C3G2) (antibody, V domains shown)
VH: QVQLQQSGAELMKPGASVKISCKATGYTFSSSWIEWLKQRPGHGLEWIGEFLPGSGSTDYNEKFKGKATFTADTSSDTAYMLLSSLTSEDSAVYYCATDGNYDWFAYWGQGTLVTVSA
VL: DLVMTQTPLSLPVSLGDQASISCRSSQSLVHSSGVTYLHWYLQKPGQSPKLLIYKVSNRFSGVPDRFSGSGSGTDFTLKISRVEAEDLGVYFCSQSTHVPPTFGSGTKLEIK
notes: Murine monoclonal antibody
B3: mAb16 (hybridoma 1E9D9B6) (antibody, V domains shown)
VH: QVQLQQSGAELVKPGASVKLSCKASGYTFTSYYMYWVKQRPGQGLEWIGEINPSNGGTNFNEKFKSKATLTVDKSSSTAYMQLSSLTSEDSAVYYCTRGGYYPFDYWGQGTTLTVSS
VL: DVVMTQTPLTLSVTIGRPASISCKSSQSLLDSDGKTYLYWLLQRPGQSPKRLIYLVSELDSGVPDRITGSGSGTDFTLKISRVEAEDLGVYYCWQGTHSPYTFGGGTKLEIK
notes: Murine monoclonal antibody
B4: mAb13 (hybridoma 2C6C3C7) (antibody, V domains shown)
VH: EVQLVESGGGLVQPGGSLKLSCAASGFIFSSYGMSWVRQSPDRRLELVASINTFGDRTYYPDSVKGRFTISRDNAKNTLYLQMTSLKSEDTAIYYCARGTGTYWGQGTTLTVSS
VL: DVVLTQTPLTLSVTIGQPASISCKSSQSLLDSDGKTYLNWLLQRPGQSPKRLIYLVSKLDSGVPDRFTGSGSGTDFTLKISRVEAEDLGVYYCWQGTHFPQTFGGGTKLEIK
notes: Murine monoclonal antibody
B5: mAb19 (hybridoma 1B3B4F11) (antibody, V domains shown)
VH: DVQLQESGPGLVKPSQSLSLTCTVTGYSITSDYAWNWIRQFPGNKLEWMGYISFSGYTSYNPSLKSRISVTRDTSRNQFFLQLTSVTTEDTATYYCAREVNYGDSYHFDYWGQGTIVTVSS
VL: QLALTQSSSASFSLGASAKLTCTLSSQHRTYTIEWYQQQSLKPPKYVMEVKKDGSHSTGHGIPDRFSGSSSGADRYLSISNIQPEDEAIYICGVGDAIKGQSVFVFGGGTKVTVL
notes: Murine monoclonal antibody

For the experiment, the target named is T1, human progastrin (full length). Put plainly: epitope mapping (no details given).
Regarding B1, the binding result was “binds”.

As to B2, the binding result is recorded as “binds”.

With B3, the binding result is given as “binds”.

In the case of B4, the binding result is recorded as “binds”.

As for B5, the binding result is given as “binds”.
